According to WO2010028796A1 (dated 2010):

B1: BNN-1000-1000 (antibody, human IgG1, kappa, L234A L235A, V domains shown)
VH: QVQLQESGPGLVKPSQSLSITCTVSGFPLGAFGVHWVRQSPGKGLEWLGVIWKGGNTDYNAAFKSRLRITKDNSKSQVFFRMNSLQTDDTATYYCAKVNLADAMDYWGQGTTVTVSS
VL: DIQMTQSPASLSASVGETVTITCRASGNAHGYLAWYQQKPGKAPKLLIYNTKTLAEGVPSRFSGSGSGTQFSLKINSAQPEDFGNYYCQHHYDLPRTFGGGTKVEIKR
B2: HNN-1000-1000 (antibody, V domains shown)
VH: QVQLQQSGPEVVKPGASVKMSCKASGYTFTSYVIHWVRQKPGQGLDWIGYINPYNDGTDYDEKFKGKATLTSDTSTSTAYMELSSLRSEDTAVYYCAREKDNYATGAWFAYWGQGTLVTVSS
VL: DIVMTQSPDSLAVSLGERVTMNCKSSQSLLYSTNQKNYLAWYQQKPGQSPKLLIYWASTRESGVPDRFSGSGSGTDFTLTISSVQAEDVAVYYCQQYYSYRTFGGGTKLEIK

How the values were obtained:
human CCR5 = human CCR5 (human, UniProt P51681 1-352); test: cell-based or functional assay
Chain of human CCR5 (P51681 whole entry): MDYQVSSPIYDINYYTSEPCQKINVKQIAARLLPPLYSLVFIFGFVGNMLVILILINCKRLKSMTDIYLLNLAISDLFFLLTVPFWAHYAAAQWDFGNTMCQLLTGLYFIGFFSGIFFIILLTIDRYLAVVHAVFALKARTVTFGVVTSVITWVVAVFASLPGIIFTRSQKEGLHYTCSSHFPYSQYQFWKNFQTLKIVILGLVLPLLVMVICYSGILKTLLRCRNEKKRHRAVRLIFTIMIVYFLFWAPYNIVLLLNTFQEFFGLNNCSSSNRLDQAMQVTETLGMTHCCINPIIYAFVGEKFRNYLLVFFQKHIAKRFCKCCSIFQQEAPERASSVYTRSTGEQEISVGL

human CD4 = human CD4 (human, UniProt P01730 26-458); test: cell-based or functional assay

Binder | IC50, PBMC antiviral assay (HIV-1 NLBal, p24 ELISA) (human CCR5) [nM] | IC50, PBMC antiviral assay (HIV-1 NLBal, p24 ELISA) (human CD4) [nM]
B1 | 1.08 | –
B2 | – | 0.348
